Test [1] has as its target T1, Cynomolgus GPRC5D (Cynomolgus, UniProt Q9NZD1 1-343 (human entry)).
T1 construct: Full length, on stably transfected cells (HEK293-cyGPRC5D, CHO-cyGPRC5D); also called cyGPRC5D
T1 chain: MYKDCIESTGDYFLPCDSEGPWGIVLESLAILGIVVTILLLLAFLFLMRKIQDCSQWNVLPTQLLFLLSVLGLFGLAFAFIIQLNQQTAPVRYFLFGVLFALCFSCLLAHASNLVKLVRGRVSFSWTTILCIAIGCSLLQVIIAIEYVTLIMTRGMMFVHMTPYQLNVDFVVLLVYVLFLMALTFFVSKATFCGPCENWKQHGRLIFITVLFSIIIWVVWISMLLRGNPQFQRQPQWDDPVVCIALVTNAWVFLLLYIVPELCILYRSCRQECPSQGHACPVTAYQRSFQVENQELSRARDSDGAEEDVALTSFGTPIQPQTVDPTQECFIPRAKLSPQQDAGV
Description: flow cytometry, CHO-cyGPRC5D cells.
Description: (§1) The binding of the antibodies to human and Cynomolgus GPRC5D stably transfected cells was detected by flow cytometry. […] Then, 100 μl/well of the cell suspension was added to a 96-well U-shaped plate, and centrifuged at 300 g for 5 min. The supernatant was discarded. 100 μL per well of serially diluted antibody was added (initial concentration: 200 nM, 3-fold dilution, 12 gradients), and incubated at 4° C. for 45 min. The secondary antibody 50 μL/well of Alexa Fluro647 labeled goat anti-human IgG Fc (1:300 dilution) was added, incubated on ice for 45 min, and detected by flow cytometry.

Test [2] has as its target T2, human GPRC5D (human, UniProt Q9NZD1 1-345).
T2 construct: Full length, on stably transfected cells (HEK293-hGPRC5D, CHO-hGPRC5D); Also used here for the endogenous GPRC5D of the GPRC5D+ myeloma lines MM.1R, MM.1S and NCI-H929; also called hGPRC5D; G-protein-coupled receptor family C group 5 member D
Description: flow cytometry on CHO-hGPRC5D cells. Background: Flow cytometry measures light scatter and fluorescence of single cells or particles in a stream.
Description: as §1

Test [3] concerns the target T2, human GPRC5D. Description: cell-based or functional assay.
Test [4] addresses T2, human GPRC5D. Description: flow cytometry, MM.1R cells.
Description: The cell suspension was adjusted to a concentration of 5×10⁵ cells/mL, and 100 μL per well was added to a 96-well U-shaped plate, centrifuged at 300 g for 5 min. The supernatant was discarded. 100 μL per well of serially diluted antibody was added (initial concentration: 200 nM, 3-fold dilution, 10 gradients), and incubated at 4° C. for 60 min. The primary antibody was washed away, and 50 μL/well Alexa Fluro647 labeled goat anti-human IgG FC (1:300 dilution) was added, and incubated for 20 min. After washing once, 50 μL/well of PI was added, incubated for 5 min, and detected by flow cytometry.

T2 sequence (Q9NZD1 whole entry): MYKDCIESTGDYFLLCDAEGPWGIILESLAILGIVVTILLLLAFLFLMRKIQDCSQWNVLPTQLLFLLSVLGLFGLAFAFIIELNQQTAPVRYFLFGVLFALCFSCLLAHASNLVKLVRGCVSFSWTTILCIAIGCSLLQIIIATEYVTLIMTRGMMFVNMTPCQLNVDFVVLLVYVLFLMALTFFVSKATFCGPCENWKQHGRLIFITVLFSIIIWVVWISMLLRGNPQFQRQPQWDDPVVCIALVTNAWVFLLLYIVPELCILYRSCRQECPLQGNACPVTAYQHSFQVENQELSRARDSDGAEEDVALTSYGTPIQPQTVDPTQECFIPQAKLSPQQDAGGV

B1: anti-GPRC5D chimeric antibody 1C1 (antibody, V domains shown)
VH: QAYLQQSGAELVRSGASVKMSCKASGYTFTSYNMHWVKQTPGQGLEWIGYIYPGNGGTNYNQKFKAKATLTADTSSSTAYMQISSLTSEDSAVYFCARGYGYRYWYFDVWGAGTTVTVSS
VL: NIVLTQSPAIMSASPGEKVTMTCSASSSVRFMHWYQQKSGTSPKRWIYDTSKVASGVPARFSGSGSGTSYSLTIRSMEAEDAATYYCQQWSSNPLTFGAGTKLELK
As for B1, the binding result in test [1] and in test [2] was “binds” each time.

B2: anti-GPRC5D chimeric antibody 10E8 (antibody, V domains shown)
VH: EVQLQQSGPELVKPGASMKISCKASGYSFTGYTMNWVKQRHGKNLEWIGLINPYNGGTSYNQKFKGKATLTVDKSSSTAYMELLSLTSEDSAVYYCARLPIRNGMDYWGQGTSVTVSS
VL: DIVLTQSPATLSVTPGDSVSLSCRASQSISNNLHWYQQKSHESPRLLVKFASLSISGIPSRFSGSGSGTDFTLSINSVETEDFGMYFCQQSNSWPQTFGGGTKLEIK
On to B2, for which the binding result in test [1] and in test [2] was “binds” throughout.

B3: anti-GPRC5D chimeric antibody 22C1 (antibody, V domains shown)
VH: EVQLQQSGPELVKPGTSMKISCKASGYSFTGYTMNWVKQSHGKNLEWIGLINPYNGGSNYNLKFKGKATLTVDKSSNTAYMELLSLTSEDSAVYYCARWGLRNAMDYWGQGTSVTVSS
VL: DIVVTQSPATLSVTPGDSVSLSCRASQSISNNLHWFQQKSHESPRLLIKYASQSISGIPSRFSGSGSGTDFTLSINSVETEDFGMYFCQQSNSWPQTFGGGTKLEIK
In the case of B3, the binding result in test [1] and in test [2] was “binds” throughout.

B4: anti-GPRC5D chimeric antibody 18E7 (antibody, V domains shown)
VH: EVQLQQSGPELVKPGASVKMSCKASEYTFTNYVMYWVKQKPGQGLEWIGYINPYNDGTKYNEKFKGKATLTSDKSSSTAYMELSSLTSEDSAVYYCVRGGMLTTRSLFAYWGQGTLVTVSA
VL: DIQMTQSPSSLSASLGERVSLTCRASQRISGYLSWLQQKPDGTIKRLIYAASTLDSGVPKRFSGSRSGSDYSLTISSLESEDFADYYCLQYASYPPTFGGGTKLEIK
For the molecule B4, the binding result in test [1] and in test [2] was “binds” each time.

B5: anti-GPRC5D chimeric antibody 12A4 (antibody, V domains shown)
VH: EVQLQQSGPELVKPGASVKMSCKASEYTFTNYVMYWVKQKPGQGLEWIGYINPYNDGTKYNEKFKGKATLTSDKSSSTAYMELSSLTSEDSAVYYCVRGGMLTTRSLFTYWGQGTLVTVSA
VL: DIQMTQSPSSLSASLGERVSLTCRASQRISGYLSWLQQKPDGTIKRLIYAASTLDSGVPKRFSGSRSGSDYSLTISSLESEDFADYYCLQYASYPPTFGGGTKLEIK
With B5, the binding result in test [1] and in test [2] was “binds” in each case.

B6: anti-GPRC5D chimeric antibody 19E2 (antibody, V domains shown)
VH: EVQLQQSGPELVKPGASVKMSCKASEYTFTNYVMYWVKQKPGQGLEWIGYINPYNDGTKYNEKFKGKATLTSDKSSSTAYMELSSLTSEDSAVYYCVRGGMLTTRSLFAYWGQGTLVTVSA
VL: DIQMTQSPSSLSASLGERVSLTCRASQRISGYLSWLQQKPDGTIKRLIYAASTLDSGVPKRFSGSRSGSDYSLTISSLESEDFADYYCLQYANYPPTFGGGTKLEIK
Turning to B6, the binding result in test [1] and in test [2] was “binds” each time.

B7: anti-GPRC5D chimeric antibody 15H5 (antibody, V domains shown)
VH: EVQLQQSGPELVKPGASVKMSCMASGYTFTSYVMYWVKQKPGQGLEWIGYINPYNDGTKYNEKFKGKATLTSDKSSSTAYMELSSLTSEDSAVYYCARGGMLTTRSLFVYWGHGTLVTVSA
VL: DIQMTQSPSSLSASLGERVSLTCRASQEISGYLSWLQQKPDGTIKRLIYAASTLDSGVPKRFSGSRSGSDYSLTISSLESEDFADYYCLQYASYPPTYGGGTKLEIK
As for B7, the binding result in test [1] and in test [2] was “binds” each time.

B8: anti-GPRC5D chimeric antibody 14D1 (antibody, V domains shown)
VH: EVQLQQSGPDLVKPGASVKMSCKASGYKFTSYVMYWVKQKTGQGLEWIGYINPYNDGTKYNEKFKGKATLTSDKSSSTAYMEFSSLTSEDSAVYYCVRGGMLTTRSLFAYWGQGTLVTVSA
VL: DIQMTQSPSSLSASLGERVSLTCRASQEISGYFSWLQQKPDGTIKRLIYAASTLDSGVPKRFSGSRSGSDYSLTISSLESEDFADYYCLQYASYPPTFGGGTKLEIK
For the molecule B8, the binding result in test [1] and in test [2] was “binds” in each case.

B9: anti-GPRC5D chimeric antibody 15A6 (antibody, V domains shown)
VH: EVQLQQSGPELVKPGASVKMSCKASGYTFTNYVMYWVKQKPGQVLEWIGYINPYNDGTKYNEKFTGKATLTSDKSSSTAYMELSSLTSEDSAVYYCARGGMLTTRSLFVYWGQGTLVTVSA
VL: DIQMTQSPSSLSASLGERVSLTCRASQEISGYFSWLQQKPDGTIKRLIYAASTLDSGVPKRFSGSRSGSDYSLTISSLESEDFADYYCLQYASYPPTFGGGTKLEIK
As for B9, the binding result in test [1] and in test [2] was “binds” throughout.

B10: anti-GPRC5D chimeric antibody 17D12 (antibody, V domains shown)
VH: EVQLQQSGPELVKPGASVKMSCKASGYTFTSYVMYWVKQKPGQVLEWIGYINPYNDGTKYNERFTGKATLTSDKSSSTAYMELSSLTSEDSAVYYCARGGMLTTRSLFLYWGQGTLVTVSA
VL: DIVMSQSPSSLSASLGERVSLTCRASQEISGYFSWLQQKPDGTIKRLIYAASTLDSGVPKRFSGSRSGSDYSLTISSLESEDFADYYCLQYASYPPTFGGGTKLEIK
Take B10: the binding result in test [1] and in test [2] was “binds” in each case.

B11: anti-GPRC5D chimeric antibody 10B1 (antibody, V domains shown)
VH: QVQLQQSGAELARPGASVKMSCKASGYIFTSYTMYWVKQRPGQGLEWIGYINPSSGYTNYNQKFKDKATLTADKSSSTAYMQLSSLTSEDSAVYYCARWGGNERLYYYAMDYWGQGTSVTVSS
VL: QIVLTQSPAIMSASPGEKVTITCSASSSVSYMYWFQQKPGTSPKLWIYGTSNLASGVPARFSGSGSGTSYSLTISRMEAEDAATYYCQQRSSYPLTFGAGTKLELK
As for B11, the binding result in test [1] and in test [2] was “binds” each time.

B12: 2E1 × CD3 GPRC5D×CD3 κλ bispecific antibody (bispecific antibody, human IgG4, V domains shown)
VH 1: QVQLVQSGAEVKKPGSSVKVSCKASGYTFTRYWMHWVREAPGQGLEWMGEFNPSNGRINYNEKFQGRVTLTIDKSSSTAYMELSSLRSEDTAVYYCTRGFAYWGQGTLVTVSS
VL 1: EIVLTQSPATLSLSPGERATLSCRASSTVSYIHWYQKKPGQAPRRLIYDTSKLASGIPARFSGSGSGTDYTLTISSLEPEDFAVYYCQQWTTNPWTFGGGTKVEIK
VH 2: EVQLVESGGGLVQPGGSLRLSCAASGFTFNTYAMNWVRKAPGKGLEWVGRIRSKYNNYATYYADSVKDRFTISRDDSKNSLYLQMNSLKTEDTAVYYCVRHGNFGNSYVSWFAYWGQGTLVTVSS
VL 2: QAVVTQEPSLTVSPGGTVTLTCRSSTGAVTTSNYANWVQEKPGQAPRGLIGGTNKRAPWTPARFSGSLLGGKAALTITGAQAEDEAEYYCVLWYSNLWVFGGGTKLTVL
notes: Human IgG4 knob-into-hole Fc with Ser228Pro, Leu235Glu, Pro329Ala; kappa light chain on the GPRC5D arm, lambda on the CD3 arm
For orientation: EC50 means the concentration that produces a half-maximal response. Higher therefore signals weaker potency. As to B12, the “TDCC EC50 (pM), MM.1R” value in test [3] is 161 pM. Also, in test [4], the midpoint of the response, the EC50, lay at 6.88 nM and the “Maximum fluorescence intensity (MFI, 200 nM)” value came to 65700 MFI.

B13: anti-GPRC5D chimeric antibody 18C3 (antibody, V domains shown)
VH: EVQLVESGGDLVKPGGSLKLSCAASGFTFSSYGMSWVRQTPDKRLEWVATISSGGSYTYYPDSVKGRFTISRDNAKNTLYLQMSSLKSEDTAMYYCARHEARATFDYWGQGTTLTVSS
VL: DIVMTQAAPSVPVTPGESVSISCRSSKSLLHSNGNTYLYWFLQRPGQSPQLLIYRMSNLASGVPDRFSGSGSGTAFTLRISRVEAEDVGVYYCMQHLEYPFTFGSGTKLEIK
Take B13: the binding result in test [1] and in test [2] was “binds” throughout.

B14: anti-GPRC5D chimeric antibody 8C2 (antibody, V domains shown)
VH: EVQLVESGGDLVKPGGSLKLSCAASGFTFSSYGMSWVRQTPDKRLEWVATISSGGSYTYYPDSVKGRFTISRDNAKNTLYLQMSSLKSEDTAMYYCARHGGSSSYVMDYWGQGTSVTVSS
VL: DIVMTQAAPSVPVTPGESVSISCRSSKSLLHSNGNTYLYWFLQRPGQSPQLLIYRMSNLASGVPDRFSGSGSGTAFTLRISRVEAEDVGVYYCMQHLEYPFTFGSGTKLEIK
With B14, the binding result in test [1] and in test [2] was “binds” each time.

These data come from patent US20260116966A1 (KEYMED BIOSCIENCES CHENGDU, published 2026).
